This note sets out measurements from the supplement of paper PMC10065799, “High-throughput profiling of sequence recognition by tyrosine kinases and SH2 domains using bacterial peptide display” (eLife, 2023).

One data set has as its target c-Src SH2. As to the kind of experiment: SH2 binding enrichment of the phosphorylated peptide, bacterial display (enrichment ratio); higher = better substrate or ligand; peptides without Tyr show the background.
A further data set addresses SHP2-C SH2. The description is as above.
Another data set has as its target Grb2 SH2 (UniProt P62993). The description is as above.
The target of another data set is EPHB1 (UniProt P54762). Kind of data set: phosphorylation enrichment, bacterial display (enrichment ratio); higher = better substrate or ligand; peptides without Tyr show the background.
EPHB1, sequence (P54762 whole entry, looked up): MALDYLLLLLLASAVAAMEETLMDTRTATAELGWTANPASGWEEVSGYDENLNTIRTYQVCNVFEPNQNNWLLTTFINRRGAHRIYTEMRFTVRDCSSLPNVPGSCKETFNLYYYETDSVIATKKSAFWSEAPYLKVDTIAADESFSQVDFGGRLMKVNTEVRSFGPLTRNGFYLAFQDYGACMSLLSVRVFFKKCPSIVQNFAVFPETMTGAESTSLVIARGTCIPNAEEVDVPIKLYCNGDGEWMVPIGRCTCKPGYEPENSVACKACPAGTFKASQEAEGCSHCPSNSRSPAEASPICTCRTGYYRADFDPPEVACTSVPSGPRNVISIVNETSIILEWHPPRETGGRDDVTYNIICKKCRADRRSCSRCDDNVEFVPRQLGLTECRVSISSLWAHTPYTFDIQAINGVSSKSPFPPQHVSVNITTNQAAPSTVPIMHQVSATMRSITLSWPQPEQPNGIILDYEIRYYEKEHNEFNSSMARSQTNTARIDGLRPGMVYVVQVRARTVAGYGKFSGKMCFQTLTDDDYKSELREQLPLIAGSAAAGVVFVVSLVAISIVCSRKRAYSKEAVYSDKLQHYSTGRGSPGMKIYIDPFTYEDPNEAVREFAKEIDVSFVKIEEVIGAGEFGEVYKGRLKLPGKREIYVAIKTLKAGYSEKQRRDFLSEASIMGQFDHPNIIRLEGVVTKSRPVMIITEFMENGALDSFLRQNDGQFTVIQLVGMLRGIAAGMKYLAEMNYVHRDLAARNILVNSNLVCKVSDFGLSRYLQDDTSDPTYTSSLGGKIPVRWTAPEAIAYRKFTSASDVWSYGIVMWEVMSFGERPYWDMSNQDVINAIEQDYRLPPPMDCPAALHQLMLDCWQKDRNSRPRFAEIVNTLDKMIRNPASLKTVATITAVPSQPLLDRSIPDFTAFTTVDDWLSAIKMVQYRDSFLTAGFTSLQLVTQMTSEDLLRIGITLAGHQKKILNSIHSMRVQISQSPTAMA
Another data set addresses FGFR1 (UniProt P11362). Described as above.
The target of the next data set is FGFR3 (UniProt P22607). The data set is described as above.
The test system of another data set is c-Src. The description is as above.
In a further data set the test system is c-Abl (mouse). The data set is described as above.
The target of a further data set is EPHB2 (UniProt P29323). The description is as above.
The target in another data set is Fyn (UniProt P06241). Described as above.
Fyn, sequence (P06241 whole entry, looked up): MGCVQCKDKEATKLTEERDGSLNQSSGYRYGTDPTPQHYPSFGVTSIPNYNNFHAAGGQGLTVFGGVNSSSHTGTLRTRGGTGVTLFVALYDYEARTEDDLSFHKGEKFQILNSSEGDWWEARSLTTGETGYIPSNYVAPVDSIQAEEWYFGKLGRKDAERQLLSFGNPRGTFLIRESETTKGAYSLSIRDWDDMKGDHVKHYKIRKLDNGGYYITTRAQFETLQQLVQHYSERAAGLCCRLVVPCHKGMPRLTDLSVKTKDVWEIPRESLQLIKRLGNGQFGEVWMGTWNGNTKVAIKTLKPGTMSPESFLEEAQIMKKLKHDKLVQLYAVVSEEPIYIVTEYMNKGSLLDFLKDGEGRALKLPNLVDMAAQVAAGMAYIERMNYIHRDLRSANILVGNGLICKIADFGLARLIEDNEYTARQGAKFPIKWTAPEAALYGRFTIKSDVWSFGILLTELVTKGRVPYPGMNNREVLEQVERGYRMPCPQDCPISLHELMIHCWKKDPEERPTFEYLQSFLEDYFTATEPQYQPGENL
Another data set concerns Fer (mouse). The description is as above.
For the next data set, the target named is Jak2 (UniProt O60674). Described as above.
Jak2, sequence (O60674 whole entry, looked up): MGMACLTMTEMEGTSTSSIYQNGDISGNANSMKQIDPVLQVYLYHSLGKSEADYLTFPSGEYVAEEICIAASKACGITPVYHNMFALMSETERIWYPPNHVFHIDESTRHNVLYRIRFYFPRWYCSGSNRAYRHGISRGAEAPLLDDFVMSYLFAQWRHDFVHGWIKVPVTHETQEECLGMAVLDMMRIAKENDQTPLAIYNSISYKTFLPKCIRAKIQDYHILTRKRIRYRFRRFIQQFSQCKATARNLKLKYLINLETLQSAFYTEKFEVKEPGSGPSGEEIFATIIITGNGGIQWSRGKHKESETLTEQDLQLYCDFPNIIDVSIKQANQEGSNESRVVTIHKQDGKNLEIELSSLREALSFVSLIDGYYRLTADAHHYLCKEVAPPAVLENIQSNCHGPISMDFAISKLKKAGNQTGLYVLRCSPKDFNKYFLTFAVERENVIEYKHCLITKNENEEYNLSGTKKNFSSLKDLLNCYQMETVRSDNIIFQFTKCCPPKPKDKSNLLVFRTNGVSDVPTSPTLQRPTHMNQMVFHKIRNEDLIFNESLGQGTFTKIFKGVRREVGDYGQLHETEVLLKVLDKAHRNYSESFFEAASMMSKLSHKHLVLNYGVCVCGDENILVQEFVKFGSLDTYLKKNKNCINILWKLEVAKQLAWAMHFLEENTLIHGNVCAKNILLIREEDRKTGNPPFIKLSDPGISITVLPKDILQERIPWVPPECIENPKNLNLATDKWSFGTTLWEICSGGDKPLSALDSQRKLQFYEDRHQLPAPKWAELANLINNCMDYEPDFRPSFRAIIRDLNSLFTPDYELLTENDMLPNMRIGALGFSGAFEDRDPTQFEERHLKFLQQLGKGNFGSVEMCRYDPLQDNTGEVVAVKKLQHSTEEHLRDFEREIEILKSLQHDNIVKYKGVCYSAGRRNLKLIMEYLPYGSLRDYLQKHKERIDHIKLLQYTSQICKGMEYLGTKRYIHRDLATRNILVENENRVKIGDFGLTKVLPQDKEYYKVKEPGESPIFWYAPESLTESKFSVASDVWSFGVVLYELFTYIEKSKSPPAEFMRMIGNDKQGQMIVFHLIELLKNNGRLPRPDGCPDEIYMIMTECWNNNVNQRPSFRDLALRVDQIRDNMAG
Another data set concerns the target MERTK (UniProt Q12866). The description is as above.
In another data set the test system is AncSZ. The data set is described as above.
In another data set the target is Hck (UniProt P08631). Described as above.
Hck, sequence (P08631 whole entry, looked up): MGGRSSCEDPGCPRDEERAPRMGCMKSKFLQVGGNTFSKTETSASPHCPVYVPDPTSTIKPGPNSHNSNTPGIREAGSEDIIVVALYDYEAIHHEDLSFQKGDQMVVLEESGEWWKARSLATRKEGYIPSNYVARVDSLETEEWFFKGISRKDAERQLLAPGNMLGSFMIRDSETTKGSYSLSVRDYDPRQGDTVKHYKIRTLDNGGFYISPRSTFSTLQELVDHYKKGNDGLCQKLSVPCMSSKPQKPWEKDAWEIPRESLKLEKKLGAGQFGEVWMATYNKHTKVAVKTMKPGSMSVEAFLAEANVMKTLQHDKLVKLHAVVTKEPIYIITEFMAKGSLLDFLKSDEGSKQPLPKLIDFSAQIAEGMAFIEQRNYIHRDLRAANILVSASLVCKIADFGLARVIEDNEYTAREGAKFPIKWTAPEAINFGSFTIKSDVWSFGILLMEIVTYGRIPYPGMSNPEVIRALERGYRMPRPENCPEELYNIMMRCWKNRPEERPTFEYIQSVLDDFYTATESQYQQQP
The next data set has as its target Fes (UniProt P07332). Described as above.
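Wherever SH2 binding enrichment of the phosphorylated peptide, bacterial display is given: peptide library displayed on the E. coli surface as eCPX fusions, selected cells deep-sequenced, score is each peptide's frequency after selection divided by its frequency in the input.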
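Wherever phosphorylation enrichment, bacterial display is given: 11-residue human phosphosite peptides and single-mutation variants displayed on the E. coli surface, counted by deep sequencing, each peptide's frequency after selection divided by its frequency in the unselected input library; frequency after pTyr selection over input frequency; kinase dosed for 20-30% of maximal phosphorylation in three min.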

Grb2 SH2, sequence (P62993 whole entry, looked up): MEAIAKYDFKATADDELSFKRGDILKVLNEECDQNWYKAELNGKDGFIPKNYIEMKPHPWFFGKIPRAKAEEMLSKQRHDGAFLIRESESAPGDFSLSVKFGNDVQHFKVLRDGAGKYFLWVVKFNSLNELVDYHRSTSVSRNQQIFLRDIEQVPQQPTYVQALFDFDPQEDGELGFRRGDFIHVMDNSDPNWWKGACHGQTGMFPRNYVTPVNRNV
Fes, sequence (P07332 whole entry, looked up, the tested form may be a part): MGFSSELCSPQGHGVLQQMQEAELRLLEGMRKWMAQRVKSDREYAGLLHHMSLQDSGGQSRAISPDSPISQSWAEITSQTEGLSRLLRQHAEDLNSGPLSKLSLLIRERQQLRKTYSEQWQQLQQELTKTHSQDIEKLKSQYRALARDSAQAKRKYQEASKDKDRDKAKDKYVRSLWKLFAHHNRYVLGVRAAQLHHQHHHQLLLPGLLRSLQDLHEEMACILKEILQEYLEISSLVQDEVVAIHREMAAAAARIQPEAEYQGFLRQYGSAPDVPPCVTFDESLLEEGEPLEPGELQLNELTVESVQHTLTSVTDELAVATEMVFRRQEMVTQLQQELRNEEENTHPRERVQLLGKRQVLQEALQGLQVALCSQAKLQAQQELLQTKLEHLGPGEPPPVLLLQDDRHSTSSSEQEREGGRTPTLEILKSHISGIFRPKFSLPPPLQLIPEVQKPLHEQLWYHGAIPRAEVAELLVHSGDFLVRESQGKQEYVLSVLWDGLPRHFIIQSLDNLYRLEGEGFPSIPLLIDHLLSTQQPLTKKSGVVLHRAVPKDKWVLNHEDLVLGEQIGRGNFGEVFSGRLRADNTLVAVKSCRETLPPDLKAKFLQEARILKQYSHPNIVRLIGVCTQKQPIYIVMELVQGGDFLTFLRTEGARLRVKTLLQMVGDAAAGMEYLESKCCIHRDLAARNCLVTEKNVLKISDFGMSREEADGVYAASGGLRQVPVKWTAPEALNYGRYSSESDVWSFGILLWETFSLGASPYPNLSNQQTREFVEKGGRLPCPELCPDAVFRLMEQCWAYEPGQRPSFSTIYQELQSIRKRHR
FGFR1, sequence (P11362 whole entry, looked up): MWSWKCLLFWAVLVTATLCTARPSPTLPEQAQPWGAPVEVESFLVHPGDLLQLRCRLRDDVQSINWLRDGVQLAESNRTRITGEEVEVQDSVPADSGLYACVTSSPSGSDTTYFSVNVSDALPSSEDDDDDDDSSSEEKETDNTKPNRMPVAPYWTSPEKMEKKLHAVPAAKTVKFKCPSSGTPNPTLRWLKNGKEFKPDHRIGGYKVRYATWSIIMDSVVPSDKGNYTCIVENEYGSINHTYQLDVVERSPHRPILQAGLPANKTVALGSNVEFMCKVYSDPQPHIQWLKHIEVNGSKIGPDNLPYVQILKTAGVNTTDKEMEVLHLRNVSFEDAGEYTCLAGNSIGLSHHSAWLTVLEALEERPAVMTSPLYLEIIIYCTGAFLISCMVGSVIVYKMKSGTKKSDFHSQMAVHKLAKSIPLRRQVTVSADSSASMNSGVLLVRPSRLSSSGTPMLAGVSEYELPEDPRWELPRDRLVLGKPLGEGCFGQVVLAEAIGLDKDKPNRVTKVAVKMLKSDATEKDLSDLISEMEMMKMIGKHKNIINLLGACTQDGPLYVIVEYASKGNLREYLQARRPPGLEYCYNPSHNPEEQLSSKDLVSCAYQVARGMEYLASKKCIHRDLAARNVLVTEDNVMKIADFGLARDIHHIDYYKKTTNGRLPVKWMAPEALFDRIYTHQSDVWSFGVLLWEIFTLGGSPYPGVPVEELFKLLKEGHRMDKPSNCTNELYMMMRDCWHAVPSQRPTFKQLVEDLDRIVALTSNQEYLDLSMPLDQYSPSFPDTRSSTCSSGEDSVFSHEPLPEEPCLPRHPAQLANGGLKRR

As for SMAKYYASEIA [ACADSB_Y373], the figures for the SH2 binding enrichment with c-Src SH2, in the data set with SHP2-C SH2 and with Grb2 SH2 were 0.48, 0.634 and 0.756, respectively. Besides, the phosphorylation enrichment with EPHB1 was found to be 0.459; in the data set with FGFR1, 0.426; in the data set with FGFR3, 0.478; with c-Src, 0.452; in the data set with c-Abl (mouse), 0.682; with EPHB2, 0.433. Moreover, the phosphorylation enrichment with Fyn came to 0.404; with Fer (mouse), 0.495; with Jak2, 0.599; in the data set with MERTK, 0.46; with AncSZ, 0.601; with Hck it was 0.473. Moreover, the phosphorylation enrichment with Fes came to 0.701.

For the sequence SMEGLYSSTQD [CLIC5_Y111], the figures for the SH2 binding enrichment with c-Src SH2, with SHP2-C SH2 and in the data set with Grb2 SH2 were 0.542, 0.446 and 0.777, respectively. Moreover, the phosphorylation enrichment with EPHB1 is 1.94; with FGFR1, 0.698; with FGFR3, 0.905; in the data set on c-Src it was 3.13; in the data set with c-Abl (mouse), 1.03; with EPHB2, 2.27. In addition, the phosphorylation enrichment in the data set with Fyn came out at 3.51; in the data set on Fer (mouse), 3.64; with Jak2, 1.36; with MERTK, 2.43; in the data set on AncSZ, 1.57; with Hck it was 4.12. Also, the phosphorylation enrichment in the data set with Fes was 1.71.

As for SNKLTYGTMVF [ACOX1_Y275], the SH2 binding enrichment with c-Src SH2 is 0.504; with SHP2-C SH2 it was 1.05; with Grb2 SH2 it was 0.925. Moreover, the phosphorylation enrichment with EPHB1 came out at 0.505; with FGFR1 it was 0.459; in the data set with FGFR3, 0.573; in the data set with c-Src, 4.65; in the data set with c-Abl (mouse) it was 0.836; with EPHB2 it was 0.604. Moreover, the phosphorylation enrichment came to 5.28 with Fyn; 0.631 in the data set with Fer (mouse); 0.863 with Jak2; 0.495 with MERTK; 0.773 in the data set with AncSZ; 2.9 in the data set with Hck. Moreover, in the data set with Fes, the phosphorylation enrichment is 1.02.

As for SPPPAYTPMSG [ERBB4_Y1056], the SH2 binding enrichment with c-Src SH2 is 0.92; in the data set with SHP2-C SH2, 0.811; with Grb2 SH2, 0.846. Further, the phosphorylation enrichment with EPHB1 was 0.438; in the data set with FGFR1, 0.41; with FGFR3 it was 0.457; with c-Src, 0.388; in the data set on c-Abl (mouse), 0.459; with EPHB2, 0.429. Moreover, the phosphorylation enrichment with Fyn was determined as 0.483; in the data set with Fer (mouse), 0.379; with Jak2, 0.503; with MERTK, 0.529; with AncSZ it was 0.522; in the data set with Hck, 0.45. Further, the phosphorylation enrichment in the data set with Fes was 0.503.

Take SQDSAYHSGIQ [FLG_Y3940]: the SH2 binding enrichment with c-Src SH2 worked out at 0.529; in the data set with SHP2-C SH2, 0.544; with Grb2 SH2, 0.899. Further, the phosphorylation enrichment in the data set with EPHB1 was determined as 0.532; in the data set with FGFR1 it was 0.4; with FGFR3, 0.512; in the data set with c-Src, 0.386; in the data set with c-Abl (mouse) it was 0.506; in the data set with EPHB2, 0.366. Also, the phosphorylation enrichment in the data set with Fyn was determined as 0.421; with Fer (mouse) it was 0.404; in the data set with Jak2 it was 0.492; in the data set with MERTK it was 0.489; in the data set on AncSZ it was 0.557; with Hck it was 0.678. Further, the phosphorylation enrichment with Fes is 0.614.

For SREDIYKRNIE [PDE4DIP_Y45], the SH2 binding enrichment with c-Src SH2 was determined as 0.403; with SHP2-C SH2, 0.753; with Grb2 SH2, 0.767. Also, the phosphorylation enrichment with EPHB1 was 0.422; in the data set with FGFR1, 0.5; with FGFR3, 0.585; in the data set with c-Src, 0.405; in the data set with c-Abl (mouse), 0.654; with EPHB2, 0.553. The phosphorylation enrichment with Fyn came out at 0.591; with Fer (mouse), 0.431; in the data set with Jak2, 0.7; with MERTK, 0.366; in the data set with AncSZ it was 0.659; with Hck, 0.603. In addition, the phosphorylation enrichment in the data set with Fes is 0.81.

SSMNDYNPLEK [MYOC_Y479_I477N]: the SH2 binding enrichment was 0.645 with c-Src SH2, 0.616 with SHP2-C SH2 and 0.848 with Grb2 SH2. Moreover, the phosphorylation enrichment with EPHB1 came to 0.422; in the data set with FGFR1 it was 0.456; with FGFR3, 0.578; in the data set on c-Src, 0.502; in the data set on c-Abl (mouse), 0.625; with EPHB2, 0.454. The phosphorylation enrichment with Fyn was 0.4; with Fer (mouse), 0.397; in the data set with Jak2 it was 1.07; with MERTK it was 0.614; in the data set on AncSZ, 0.797; with Hck, 0.479. Besides, the phosphorylation enrichment with Fes is 0.977.

Regarding SSPQPYLVPFL [TAF4_Y652], the SH2 binding enrichment with c-Src SH2 is 0.829; with SHP2-C SH2, 1.66; with Grb2 SH2, 0.86. In addition, the phosphorylation enrichment is 0.415 with EPHB1; 0.522 with FGFR1; 0.746 in the data set with FGFR3; 0.49 with c-Src; 1.09 in the data set on c-Abl (mouse); 0.867 in the data set with EPHB2. In addition, the phosphorylation enrichment worked out at 0.497 with Fyn; 0.466 in the data set with Fer (mouse); 2.85 with Jak2; 0.514 with MERTK; 0.857 with AncSZ; 0.481 with Hck. Also, in the data set with Fes, the phosphorylation enrichment turned out to be 0.78.
